Results published in the supplement of paper PMC12338614.
± gives the uncertainty stated by the source.

B1: library; numbered along this chain (parent)
chain: MEVVDPQQLGMFTEGELMSVGMDTFIHRIDSTEVIYQPRRKRAKLIGKYLMGDLLGEGSYGKVKEVLDSETLCRRAVKILKKKKLRRIPNGEANVKKEIQLLRRLRHKNVIQLVDVLYNEEKQKMYMVMEYCVCGMQEMLDSVPEKRFPVCQAHGYFCQLIDGLEYLHSQGIVHKDIKPGNLLLTTGGTLKISDLGVAEALHPFAADDTCRTSQGSPAFQPPEIANGLDTFSGFKVDIWSAGVTLYNITTGLYPFEGDNIYKLFENIGKGSYAIPGDCGPPLSDLLKGMLEYEPAKRFSIRQIRQHSWFRKKHPPAEAPVPIPPSPDTKDRWRSMTVVPYLEDLHGADEDEDLFDIEDDIIYTQDFTVPGQVPEEEASHNGQRRGLPKAVCMNGTEAAQLSTKSRAEGRAPNPARKACSASSKIRRLSACKQQ

Variants of: B1
Experiment: STK11 functional score (HeLa growth suppression), rescaled enrichment; synonymous median = 1, nonsense median = 0 (normalised score)
Details: with HeLa; variant type: missense
Method: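 Deep mutational scan (TileSeq/POPCode codon randomisation) of full-length codon-optimised STK11 cDNA integrated at a Bxb1 landing pad (AAVS1) in HeLa cells. Restoring functional STK11 suppresses HeLa proliferation. Variant frequencies were measured by NGS before and after about two weeks of growth. The error-corrected enrichment log-ratio was rescaled so that synonymous median = 1 and nonsense median = 0, scores above 1 were compressed, and codon-level and three biological replicate scores were combined; error is the bootstrapped standard error. Scale: synonymous median = 1, nonsense median = 0; below 0.5 = damaging.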

Row | Variant | STK11 functional score
1 | N247G | 0.808 ± 0.097
2 | Y36A | 0.73 ± 0.18
3 | F309L | 0.874 ± 0.32
4 | K62W | 1.38 ± 0.43
5 | S378M | 1.11 ± 0.13
6 | W332R | 1.55 ± 0.35
7 | R87Y | 1.6 ± 0.29
8 | T32H | 1.68 ± 0.17
9 | A429C | 1.62 ± 0.14
10 | E199L | 0.971 ± 0.12
11 | H379P | 1.46 ± 0.23
12 | L45W | 1.65 ± 0.16
13 | K175F | 0.988 ± 0.35
14 | R103L | 0.918 ± 0.12
15 | R87V | 1.08 ± 0.43
16 | K431Y | 1.48 ± 0.18
17 | F354K | 1.57 ± 0.22
18 | D355H | 1.11 ± 0.65
19 | A316M | 1 ± 0.69
20 | E375C | 1.31 ± 0.31
21 | P222C | 0.773 ± 0.62

Row | Variant | STK11 functional score
22 | L54V | 0.645 ± 0.14
23 | P339I | 1.52 ± 0.15
24 | A200Y | 1.29 ± 0.38
25 | L9P | 1.43 ± 0.21
26 | S232W | 0.692 ± 0.097
27 | L164C | 1.21 ± 0.15
28 | R415H | 1.6 ± 0.28
29 | A420G | 1.52 ± 0.26
30 | V128F | 1.13 ± 0.21
31 | E374C | 1.51 ± 0.19
32 | G251T | 1.21 ± 0.25
33 | A397K | 0.947 ± 0.67
34 | V133P | 1.53 ± 0.38
35 | R75W | 0.21 ± 0.14
36 | L45F | 1.1 ± 0.26
37 | E199C | 1.38 ± 0.23
38 | E223K | 0.308 ± 0.41
39 | P222G | 0.489 ± 0.095
40 | N181T | -0.449 ± 0.1
41 | P369A | 1.43 ± 0.18
42 | V150T | 0.385 ± 0.47

Row | Variant | STK11 functional score
43 | Y362F | 1.05 ± 0.12
44 | D194P | -0.348 ± 0.096
45 | K82W | 1.33 ± 0.33
46 | S59L | 1.56 ± 0.32
47 | E65D | 1.34 ± 0.37
48 | A273I | 1.46 ± 0.34
49 | R383A | 1.44 ± 0.36
50 | C391G | 1.22 ± 0.32
51 | L195E | 1.59 ± 0.18
52 | M335H | -0.482 ± 0.11
53 | C132L | 0.813 ± 0.2
54 | V20T | 1.6 ± 0.17
55 | A225L | 1.52 ± 0.2
56 | H168L | 0.263 ± 0.078
57 | G279A | 0.991 ± 0.39
58 | V337P | 1.58 ± 0.14
59 | S378G | 0.914 ± 0.31
60 | I99G | 0.767 ± 0.3
61 | V390R | 1.4 ± 0.26
62 | R304F | 0.0963 ± 0.15
63 | E121L | 1.43 ± 0.23

Row | Variant | STK11 functional score
64 | S421F | 1.08 ± 0.5
65 | G268M | 0.465 ± 0.33
66 | H345S | 1.18 ± 0.2
67 | Q37R | 1.34 ± 0.29
68 | A43R | 1.64 ± 0.26
69 | P411D | 1.59 ± 0.15
70 | E57A | 1.15 ± 0.13
71 | A389R | 1.56 ± 0.29
72 | N259C | 1.12 ± 0.42
73 | M139N | 0.949 ± 0.081
74 | V4G | 1.03 ± 0.13
75 | G171S | 1.41 ± 0.46
76 | K146G | 0.814 ± 0.28
77 | T185Y | 0.976 ± 0.12
78 | A318Y | 1.63 ± 0.31
79 | E33C | 1.11 ± 0.49
80 | G381H | 1.6 ± 0.29
81 | S271L | 1.39 ± 0.29
82 | D207S | 0.778 ± 0.12
83 | E396M | 1.47 ± 0.39
84 | R211Y | 1.53 ± 0.57
